Test results taken from article PMC11099015.
Like-named read-outs stand apart in the source and are kept apart here.

Assays:
[1] = molecular target: SETD3(1−498) (UniProt Q86TU7); assay: BLI
[2] = molecular target: SETD3(1−498) (UniProt Q86TU7); assay: AUC

Substance | Kd [1] | stoichiometry N [2] | Kd ([1]; 2A KHY(70-72)AAA at 12.5, 6.25, 3.13, 1.56 and 0.78 µM)
CVB3 2A C107A (enzyme) | 11.8 nM | – | –
EV71 2A C110A (enzyme) | 22.7 nM | 1 | –
EV71 2A C110A K70A; H71A; Y72A | – | – | 1750 nM
